Assay results taken from the nanobody polyreactivity screen of Harvey et al. (2022).

Test: yeast display, Sf9 membrane polyspecificity reagent, FACS + sequencing; frameworks hold sequencing errors
Procedure, shortened: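 Genes from sorted yeast were amplified by colony PCR, read by MiSeq 2 × 250 sequencing and filtered on CDR length. These cells carried a synthetic nanobody library in Saccharomyces cerevisiae BJ5465 and were sorted by FACS into low and high (top ~1%) gates on anti-HA and streptavidin fluorescence. Polyreactivity is labelled according to the gate of origin.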

Sequence	polyreactivity (PSR sort gate)
QVQLVESGGGLVQAGGSLRLSCAASGITFFAYAMGWYRQAPGKERELVAAIWRGDNTYYADSVKGRFTISRDNAKNTVYLQMNSLKPEDTAVYYCAARYWSRRIFREGYWGQGTQVTVSS	high polyreactivity
QVQLVESGGGLVQAGGSLRLSCAASGITFFRNARGWYRQAPGKEREFVATISRSSGSTYADSVKGRFTISRDNAKNTVYLQMNSLKPEDTAVYYCAAERTYSDSLSFDHWGQGTQVTVSS	low polyreactivity
QVQLVESGGGLVQAGGSLRLSCAASGITFFTYAMGWYRQAPGKERELVAAISGSGGSTYYADSVKGRFTISRDNAKNTVYLQMNSLKPEDTAVYYCATDTGYPYSYDLYDSYYWGQGTQVTVSS	low polyreactivity
QVQLVESGGGLVQAGGSLRLSCAASGITFGDNDMGWYRQAPGKDRELVASISSGGSTTYADSVKGRFTISRDNAKNTVYLQMNSLKPEDTADYYCNADYGSSVEYNYWGQGTQVTVSS	low polyreactivity
QVQLVESGGGLVQAGGSLRLSCAASGITFGDYAMGWYRQAPGKERELVAAISYGGGSTYYADSVKGSFTISRDNAKNTVYLQMNSLKPEDTAVYYCAADGWRTYGYYEYDYWGQGTQVTVSS	low polyreactivity
QVQLVESGGGLVQAGGSLRLSCAASGITFGDYDMGWYRPAPGKERELVAAITYDGGTTYYADSVKGRFTISRDNAKNTVYLQMHSLKPEDTAVYYCNADSYRGLYDYWGQGTQVTVSS	low polyreactivity
QVQLVESGGGLVQAGGSLRLSCAASGITFGFYAMGWYRQAPGKERELVASITWRGGSTYYADSVKGRFTISRDNAKNTVYLQMNSLKPEDTAVYYCAAEQYVFRPRAQEITTYDYWGQGTQVTVTS	high polyreactivity
QVQLVESGGGLVQAGGSLRLSCAASGITFGKNAMGWYRQAPGKESEFVAAISWGGGRTYYADSVKGRFTISRDNAKNTVYLQMNSLKPEDTAVYYCNVGPRAGWYRSNYDYWGQGTQVTVSS	low polyreactivity
QVQLVESGGGLVQAGGSLRLSCAASGITFGLYVMGWYRQAPRKERELVAANSSGGSTNYADSVKGRFTISRDNAKNPVYLQMNSLKPEDTAVYYCNADRLRPEYDYWGQGTQVTVSS	low polyreactivity
QVQLVESGGGLVQAGGSLRLSCAASGITFGPYAMGWYRQAPGKERELVAAITWGGGSTYYADSVKGRFTISRDNAKNTVYFQMNSLKPEDTAVYYCAASVEWYGWYPYDFWGQGTQVTVSS	low polyreactivity
QVQLVESGGGLVQAGGSLRLSCAASGITFGRNTMGWYRQAPGKERELVAAIDSGGNTYADSVKGRFTISRDNAKNTVYLLMNSLKPDDTAVYYCAVDGGEFSSYVYWGQGTQVTVSS	low polyreactivity
QVQLVESGGGLVQAGGSLRLSCAASGITFGRYAMGWYREAPGKERELVAAISRRGGSTHYADSVKGRFTISRDNAKNTVYLQMNSLKPEDTAVYYCNASPYRYRPSEYDYWGQGTQVTVSS	high polyreactivity
QVQLVESGGGLVQAGGSLRLSCAASGITFGSYAMGWYRHAPGKERELVAAIRWRGGNTYYADSVKGRFTISRDNAKNTVYLQMNSLKPEDTAVYSCAARRYGYRYDQPYYNDYWGQGTQVTVSS	low polyreactivity
QVQLVESGGGLVQAGGSLRLSCAASGITFGSYAMGWYRQAPGKEREFVAAISLSGGNTYYADSVKGRFTISRDNAKNTVYLQMNSLKPEDTAVYYCAADYEYSGYGYWGQGTQVTVSS	high polyreactivity
QVQLVESGGGLVQAGGSLRLSCAASGITFGSYAMGWYRQAPGKERELVAAITSGGGTNYADSVKGRFTISRDNPKNTVYLQMNSLKPEDTAVYYCAARYYYLGTRYGYWGQGTQVTVSS	low polyreactivity
QVQLVESGGGLVQAGGSLRLSCAASGITFGTYAMGWYRQATGKERELVDAITRGGRTYYADSVKGRFTISRDNDKNTVYLQMYSLKPEDTAVYYCNAYVLRRYGWRSGDDYDYWGQGTQVNVSS	high polyreactivity
QVQLVESGGGLVQAGGSLRLSCAASGITFGVNAMGGSRQAPGKERELVAAITQRGDSTYYADSVKGRFTISRDTAKNTLDLQMNSLKPEDTAVYYCNADYAWRFPVTYDYWGQGTQVTVSS	low polyreactivity
QVQLVESGGGLVQAGGSLRLSCAASGITFGVYGMGWYRQAPGKERELVAAISRTGGSTYYADSVKGRFTISRDNAKNTVYLQMNSLKPEDTAVYYCAADRYRRVAKHGYWGQGTQVTVSS	high polyreactivity
QVQLVESGGGLVQAGGSLRLSCAASGITFGYYAMGWYRQAPGKEREFVAGITTSGGTTYYADSVKGRFTISRDNENNTVYLHMNSLKPEDTAVYYCAVYGGVKRGSFYYWGQGTQVTVSS	low polyreactivity
QVQLVESGGGLVQAGGSLRLSCAASGITFGYYAMGWYRQAPGKERELVAAISWSGDSTYYADSVKGRFTISRDNAKNTVSLQMNSLKPEDTPVYYCTRGSSWEYGAEYNYWGQGTQVTVSS	low polyreactivity
QVQLVESGGGLVQAGGSLRLSCAASGITFGYYAMGWYRQAPGKERELVASISWSGDSTYYADSVKGRFTISRDNAKNTVYLQMNSLKPEDTAVYYCNRGSSWEYGAEYNYWGQGTQETVSS	low polyreactivity

Sequence	polyreactivity (PSR sort gate)
QVQLVESGGGLVQAGGSLRLSCAASGITFGYYAMGWYRQAPGKERELVATITDGGGTKYADSVKGRFTISRDNAKNTVYLQINSLKPEDTAVYYCAAGLRHVYATEYDYWGQGTQVTVSS	low polyreactivity
QVQLVESGGGLVQAGGSLRLSCAASGITFGYYAMGWYRQAPGKERELVATLTDGGGTKYADSVKGRFTISRDNAMNTVYLQMDSLKPEDTAVYYCAAGLRHVYATEYDYWGQGTQVTVSS	low polyreactivity
QVQLVESGGGLVQAGGSLRLSCAASGITFHDNAMGWYRQAPGKERELVAGSTSGGSTFYADSVKGRFTISRDNAKNTVYLQMNSLKPEDTAVYYCAARRSKYRRGGGYYWGQGTQVTVSS	high polyreactivity
QVQLVESGGGLVQAGGSLRLSCAASGITFHKYAMGWYRQAPGKESELVAAISSGGGTYYADSVKGRFTISRDNAKNTVYLQMNSLKPEDTAVYYCNADIEWLWVRYDYWGQGTQVTVSS	high polyreactivity
QVQLVESGGGLVQAGGSLRLSCAASGITFIIYVMGWYRQAPGKERELVAAISSTGSTYYADSVKGRFTISRDNAKNTVYLQMNSLKPEDTAVYYCAARGRRSSNGFYYWGQGTQVTVSS	high polyreactivity
QVQLVESGGGLVQAGGSLRLSCAASGITFIKNAMGWYRQAPGKERELVAAISRSGGRTYYADSVKGRFTISRDNAKNTVYLQMNSLKPEDTAVYYCAAVTQRSYFYDYWGQGTQVTVSS	high polyreactivity
QVQLVESGGGLVQAGGSLRLSCAASGITFILYAMGWYRQAPGKERELVASITSGGSTDYADSVKGRFTISRDNAKTTVYLQMNSLKPEDTAVYYCAADGRTYHHHDGGWYRYDYWGQGTQVTVSS	low polyreactivity
QVQLVESGGGLVQAGGSLRLSCAASGITFISYAMGWYRQAPGKERELVAVISKSGGRTYYADSVKGRFTISRDNAKNTVYLQMNSLKPEDTAVYYCAATKRYASGMYYWGQGTQVTVSS	high polyreactivity
QVQLVESGGGLVQAGGSLRLSCAASGITFIVKTMGWYRQAPGKEREFVATISANSDGTYYADSVKGRFTISRDNAKNTVYLQMNSLKPEDTAVYYWGQGTQVTVSS	low polyreactivity
QVQLVESGGGLVQAGGSLRLSCAASGITFIWYAMGWYRQAPGKERELVAAISTSGGSTYYADSVKGRFTISRDNAKNTVYLQMNSLKPEDTAVYYCAAVSGGVSRSYDRYYWGQGTQVTVSS	high polyreactivity
QVQLVESGGGLVQAGGSLRLSCAASGITFIYYAMGWYSQAPGKDRELVAAISRSGGSTYYADSVKGRFTISRDNAKNTVYLQMNSLKPEETAVYYCAADGSKYSGRVTGDYWGQGTQVTVSS	high polyreactivity
QVQLVESGGGLVQAGGSLRLSCAASGITFKAYAMGWYRQAPGKERELVAAINTSGARTYYADSVKGRFTISRDNAKNTVYLQMNSLKPEDTAVYYCNARLHQQEGDYWGQGTQVTVSS	low polyreactivity
QVQLVESGGGLVQAGGSLRLSCAASGITFKDYAMGWYRQATGKERELVAVISYSGGSTYYADSVKGRFTISRDNAKNTVYLEMNSLKPEDTAVYYCAARVGPEYDWGQGTQVTVSS	low polyreactivity
QVQLVESGGGLVQAGGSLRLSCAASGITFKPYAMGWYRQAPGKERELVATITFRGGSTYYADSVKGRFTISRDNAKNTVYLQMNSLNPEDTAVYYCAAVTRRYVLSTFYYWGQGTQVTVSS	high polyreactivity
QVQLVESGGGLVQAGGSLRLSCAASGITFKPYGMGWSRQAPGKERELVADITSGGITYYADSVKGRFTISRDNAKNTVYLQMNSLKPEDTAVYYCAAPYQQHVYHHYWGQGTQVTVSS	low polyreactivity
QVQLVESGGGLVQAGGSLRLSCAASGITFKPYGMGWYRPAPGKERELVADITSGGITYYADSVKGRFTISRDNAKNTVYLQMNSLKPEDTAVYYCATGDLFVYYWGYVVRLYDYWGQGTQVTVSS	low polyreactivity
QVQLVESGGGLVQAGGSLRLSCAASGITFKRYAMGWYRQAPGKERELVAAITISAGSTYYADSVKGRFTISRDNAKNTVYLQMNSLKPEDTAVYYCAAESYGSWYYYWGQGTQVTVSS	high polyreactivity
QVQLVESGGGLVQAGGSLRLSCAASGITFKTYAMGWYRQAPGKVRELVATITRGSRTNYADSVKGRFTISRDNAKNTVYLQMNSLKREHTAVYYCAAHYTTFIRSPDGDYLGQGTQVTVSS	low polyreactivity
QVQLVESGGGLVQAGGSLRLSCAASGITFKWNALGWYRQAPGKERELVAVISSDGRTYYADSVKWRFTISRDKAKNTVYLQMNSLKPEDTAVYYCNADRSVIHRGYIWQPGRNDYWGQGTQVTVSS	low polyreactivity
QVQLVESGGGLVQAGGSLRLSCAASGITFKWNDMGWYRQAPGKEREFVAAITGSTGSTFYADSVKGRFTISRDNAKNTVYLQMISLKPEDTAVYYCAAGPWFYYWGQGTQVTVSS	low polyreactivity
